Measured values from patent US12698507B2, “Methods and compositions for conferring and/or enhancing herbicide tolerance using protoporphyrinogen IX oxidase of various cyanobacteria or variant thereof” (FarmHannong Co., Ltd., priority 2019, dated 2026).
Numbering of substitutions follows the chain as printed. Numbers in names are those of the source.

B1: CyPPO19 R89A + I408W + F360V: variant of CyPPO19 PPO protein (SEQ ID NO: 1) (protein)
chain: MSEVDVAIVGGGLSGLSLAWRLQQSAPQYSVVLLEASDRLGGNITTQTAEGFVWELGPNSFAPTPALLQLIAEVGLQSELIRGDRHLPAYIYWRGQLYPLQPTRPLALATSNLLSPWGKVRAALGALGFVPPYLGSGDESVNSFFRRHLGQEVAERLVAPFVSGVYAGDPQQLSAAAAFRRIAQLEKLGGGLIAGALHLRRQQAPKPKPPTSVQMRPGELGSFKEGLAALPRAIAQQLKAPIHLQTPVQEITPDPKGGYLLRSGEQTWRARSVVLATPAYQTAELVAPFQPAIARVLATIPYPTVACVVLAYPAGLGRSVRPGFGVLIPRSQGIRTLGTIWSSCLFPQRTPAGWQVFTSVIGGATDPDLASLSEEAIVQQVQQDLNRLLDLPAAKARLLGMKVWRRAWPQYMVGYPEQWQQVTHALSQTPGLFLCSNYAEGVALGDRVEHGNRTAAAVAAYLSGGQP
modifications: Synthetic_PPO of Thermosynechococcus elongatus PKUAC-SCTE542 (comprising GenBank No. CP032152.1)
B2: CyPPO19 V165S + A167I + F360M: variant of CyPPO19 PPO protein (SEQ ID NO: 1) (protein)
chain: B1 chain with A89R, V165S, A167I, V360M, W408I
modifications: Synthetic_PPO of Thermosynechococcus elongatus PKUAC-SCTE542 (comprising GenBank No. CP032152.1)
B3: CyPPO19 V165C + V305M + F360V: variant of CyPPO19 PPO protein (SEQ ID NO: 1) (protein)
chain: B1 chain with A89R, V165C, V305M, W408I
modifications: Synthetic_PPO of Thermosynechococcus elongatus PKUAC-SCTE542 (comprising GenBank No. CP032152.1)
B4: CyPPO19 R89A + I408R + F360L: variant of CyPPO19 PPO protein (SEQ ID NO: 1) (protein)
chain: B1 chain with V360L, W408R
modifications: Synthetic_PPO of Thermosynechococcus elongatus PKUAC-SCTE542 (comprising GenBank No. CP032152.1)
B5: CyPPO19 V165C + A167L + F360T: variant of CyPPO19 PPO protein (SEQ ID NO: 1) (protein)
chain: B1 chain with A89R, V165C, A167L, V360T, W408I
modifications: Synthetic_PPO of Thermosynechococcus elongatus PKUAC-SCTE542 (comprising GenBank No. CP032152.1)
B6: CyPPO19 V165C + V305M + F360I: variant of CyPPO19 PPO protein (SEQ ID NO: 1) (protein)
chain: B1 chain with A89R, V165C, V305M, V360I, W408I
modifications: Synthetic_PPO of Thermosynechococcus elongatus PKUAC-SCTE542 (comprising GenBank No. CP032152.1)
B7: CyPPO19 V165S + A167C + F360L: variant of CyPPO19 PPO protein (SEQ ID NO: 1) (protein)
chain: B1 chain with A89R, V165S, A167C, V360L, W408I
modifications: Synthetic_PPO of Thermosynechococcus elongatus PKUAC-SCTE542 (comprising GenBank No. CP032152.1)

tested on: PPO-deficient BT3 E. coli (ΔPPO); experiment: PPO-inhibiting herbicide tolerance test of PPO variants in E. coli (growth on herbicide-containing LB agar); type: cell-based; settings: CyPPO19 variants in BT3 (ΔPPO) E. coli; LB agar with 0 to 2,000 μM herbicide, 37° C., dark, 16-20 hours
Description: To enhance the PPO-inhibiting herbicide resistance of CyPPO19 and CyPPO18, PPO variant genes of the above example 2 were constructed. They were transformed to BT3 (ΔPPO) strain which is deficient of PPO activity and cultured in LB media with PPO-inhibiting herbicide, thereby examining whether growth of transformed BT3 was not inhibited.
BT3 competent cells were transformed with the pET303-CyPPO19 (wild type), pET303-CyPPO18 (wild type) plasmids, and those with a mutation(s) constructed (refer to example 2) via heat shock method, and were cultured in LB agar media containing ampicillin.
Single colony transformed with each CyPPO gene was cultured in 3 mL of LB broth (LPSS) containing ampicillin for more than 12 hours, and then was subcultured in LB broth until absorbance (OD600) reached 0.5 to 1. Then, it was diluted with LB broth to OD600=0.5. Again, the diluted solution was serially diluted 4 times by a factor of one tenth.
The LB agar media (LB 25 g/L, Bacto agar 12 g/L) containing ampicillin (100 μg/mL) and 0 to 2,000 μM of various herbicides were prepared. Herbicide solution stocks were all prepared in DMSO.
Then, 10 μL of each diluted solution of E. coli was dropped on the plate and cultured at 37° C. under dark for 16-20 hours. PPO-inhibiting herbicide resistance was evaluated with the extent of E. coli growth containing each gene was observed.
The extent of herbicide resistance was evaluated by the relative growth of variants to that of wild type, and listed in Tables 9 and 10 and FIGS. 3 to 32.
In Tables 9 and 10, the tolerance level of variants showing equivalent resistance to wild type was presented as ‘−’, and was done as ‘+’ per each 10-fold resistance until ‘+++++’ as maximal resistance.
FIGS. 3 to 30 and FIGS. 31 and 32 show the transformed E. coli growth result of CyPPO19 WT and its variants and CyPPO18 WT and its variants, respectively. The concentrations of herbicides were written above the photographs of tolerance test. A 10-fold dilution series of spots were shown from OD600=0.5 of the leftmost spot to OD600=0.00005 of the rightmost one.

Molecule | tolerance level relative to wild type, Carfentrazone | tolerance level relative to wild type, Flumioxazin | tolerance level relative to wild type, Fomesafen | tolerance level relative to wild type, Oxyfluorfen | tolerance level relative to wild type, Saflufenacil | tolerance level relative to wild type, Sulfentrazone | tolerance level relative to wild type, Tiafenacil
B1 | + (‘+’ per each 10-fold resistance) | +++++ (until ‘+++++’ as maximal resistance) | +++++ (until ‘+++++’ as maximal resistance) | +++ (‘+’ per each 10-fold resistance) | +++++ (until ‘+++++’ as maximal resistance) | +++++ (until ‘+++++’ as maximal resistance) | +++++ (until ‘+++++’ as maximal resistance)
B2 | + (‘+’ per each 10-fold resistance) | +++++ (until ‘+++++’ as maximal resistance) | ++ (‘+’ per each 10-fold resistance) | ++ (‘+’ per each 10-fold resistance) | ++++ (‘+’ per each 10-fold resistance) | +++ (‘+’ per each 10-fold resistance) | +++++ (until ‘+++++’ as maximal resistance)
B3 | + (‘+’ per each 10-fold resistance) | +++++ (until ‘+++++’ as maximal resistance) | ++ (‘+’ per each 10-fold resistance) | +++ (‘+’ per each 10-fold resistance) | +++++ (until ‘+++++’ as maximal resistance) | ++++ (‘+’ per each 10-fold resistance) | +++++ (until ‘+++++’ as maximal resistance)
B4 | + (‘+’ per each 10-fold resistance) | +++ (‘+’ per each 10-fold resistance) | + (‘+’ per each 10-fold resistance) | + (‘+’ per each 10-fold resistance) | +++ (‘+’ per each 10-fold resistance) | ++ (‘+’ per each 10-fold resistance) | +++ (‘+’ per each 10-fold resistance)
B5 | + (‘+’ per each 10-fold resistance) | +++ (‘+’ per each 10-fold resistance) | ++ (‘+’ per each 10-fold resistance) | + (‘+’ per each 10-fold resistance) | +++ (‘+’ per each 10-fold resistance) | +++ (‘+’ per each 10-fold resistance) | ++++ (‘+’ per each 10-fold resistance)
B6 | + (‘+’ per each 10-fold resistance) | +++++ (until ‘+++++’ as maximal resistance) | ++ (‘+’ per each 10-fold resistance) | ++ (‘+’ per each 10-fold resistance) | +++++ (until ‘+++++’ as maximal resistance) | +++ (‘+’ per each 10-fold resistance) | +++++ (until ‘+++++’ as maximal resistance)
B7 | + (‘+’ per each 10-fold resistance) | ++++ (‘+’ per each 10-fold resistance) | + (‘+’ per each 10-fold resistance) | + (‘+’ per each 10-fold resistance) | +++ (‘+’ per each 10-fold resistance) | ++ (‘+’ per each 10-fold resistance) | ++++ (‘+’ per each 10-fold resistance)
